Test: yeast display, Sf9 membrane polyspecificity reagent, FACS + sequencing; frameworks hold sequencing errors
In short: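 Synthetic nanobody libraries on Saccharomyces cerevisiae BJ5465 were galactose-induced for 36–48 hours, stained 1 hour at 4 °C with 10% biotinylated, detergent-solubilized Sf9 membrane reagent and enriched on streptavidin microbeads. FACS then separated cells into low and high (top ~1%) gates by anti-HA (expression) and streptavidin (reagent binding) fluorescence. Genes were colony-PCR amplified, MiSeq 2 × 250 sequenced and CDR-length filtered. A clone's polyreactivity label is that of its gate of origin.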

| Sequence | polyreactivity (PSR sort gate) |
| --- | --- |
| QVQLVESGGGLDQAGGSLRLSCAASGNIVYNGMGWYRQAPGKERELVAAIRGSGGRTYADSVKGRFTISRDNAKNTVYLQMNSLKPEDTAVYYCATRRWYAYGVYYWGQGTQVTVSS | high polyreactivity |
| QVQLVESGGGLDQAGGSLRLSCAASGRIFPFNAMGWYRQAAGKERELVASIRSTGGNTYYADSVKGRFTISRDNAKNTVYLQMISLIPEDSAVYYWGQGTQVTVSS | low polyreactivity |
| QVQLVESGGGLDQAGGSLRLSCAASGRIFSYYTMGWYRQAPGKERELVAAITWGGGSTSYADSVKGRFTISRDNAKNTVYLQMNSLKPEDTAVYYCAESPGANRMDYWGQGTQVTVSS | low polyreactivity |
| QVQLVESGGGLDQAGGSLRLSCAASGRIIRYYAKGWYRQAPGKEREFVATISSGGSTNYADSVKGRFTISRDNAKNNVYLQMNSLKQEHTSVYYCNRVYSRHVWGQGTQVTVSS | high polyreactivity |
| QVQLVESGGGLDQAGGSLRLSCAASGRILTGYAMGWYRQAPVKVRELVAAISNDTDSTHYADSVKGRFTISRDNAKKTVYLQMNSLKPEATAVYYCATDAPLQKRWRRFDYWGQGTHVTVSS | low polyreactivity |
| QVQLVESGGGLDQAGGSLRLSCAASGRNYGLYAMGWYIQAPWKERELVAAITRTASTNYADSVNGRFTISRDNAKNTVYLQMNSLKPEDTAVYYCAAESWYPSDLWYTYEYWGQGTQVTVSS | low polyreactivity |
| QVQLVESGGGLDQAGGSLRLSCAASGRTFDFYAMGWYRQAPGKEMELVAAITFSTGSTTYADSVKGRFTISRDNAKNTVYLQMNSLKPEDTAVYYCAADGDGWWWSYVDRYDYWGQGTQVTVSS | low polyreactivity |
| QVQLVESGGGLDQAGGSLRLSCAASGRTFGYYARGWYRQAPGKERELVAAISYSGGTTYYADSVKGRYTISRDNAKNTVYLQMNSLKPEDTAVYYCATGGYSTRQSTFDYWGQGTQVTVSS | low polyreactivity |
| QVQLVESGGGLDQAGGSLRLSCAASGRTFIYNAMGWYRQAPGKEREFVAAITWSGATTRYADSVKGRFTISRDNAKNTVYLQMNSLKPEDTAVYYCAKGGFYYYGWRSSMDYWGQGTQVTVSS | high polyreactivity |
| QVQLVESGGGLDQAGGSLRLSCAASGRTFWNYAMGWYRQAPGKERELVAVIRFSDGSTYYADSVKGRFTISRDNAKNTVYLQMNSLKPEDTAVYYCAAKGPRRWASGFDYWGQGTQVTVSS | low polyreactivity |
| QVQLVESGGGLDQAGGSLRLSCAASGRTFYANPMGWYRQAPGKQRELVAAIRRSGGRTYYADSVKGRFTISRDNAKNTVYLQMNSLKPEDTAVYYCATARYRAEMGYWGQGTQVTVSS | high polyreactivity |
| QVQLVESGGGLDQAGGSLRLSCAASGRTIRYYTMGWYRQAPGTERELVATIRRGGTTYYADSVKGRFTISRDNAKNTVYLQMNSLKPEDTAVYYCAKESLYQYDYWGQGTQVTVSS | low polyreactivity |
| QVQLVESGGGLDQAGGSLRLSCAASGRTYYRYAMGWYRQAPGKESELVAAITWSGGSSYYADSVKGRFTTSRDNAKNTVYLQRNTLKPEDTAVYYCARRLYPYRPTAYDSWGQGTQVTVAS | low polyreactivity |
| QVQLVESGGGLDQAGGSLRLSCAASGSIFFYNVLGWYRQAPGKERELVASISWRGASTYYADSVKGRFTISRDNAKNTVYLQMNSLKPEDTAVYYCAARFRSATRYQTGYYWGQGTQVTVSS | high polyreactivity |
| QVQLVESGGGLDQAGGSLRLSCAASGSIFHWNVMGWYRQAPGKERKLVAVISSSDGSTNYADSVKGRFTISRDNAKNTVYLQMNCLKPEDTAVYYCAARGYAINYLWPFNYWGQGTQVTVSS | low polyreactivity |
| QVQLVESGGGLDQAGGSLRLSCAASGSIFKYYVIGCYRQAPAKERELLAAISSGGSTYYADSVKGRFTISRDNAKNTVSLQLNSLKPEDTAVYFCAAKKAKSYYVSRYPRYYYWGQGTQVTVSS | low polyreactivity |
| QVQLVESGGGLDQAGGSLRLSCAASGSIFPINAMGWYRQAPGKEREFDAAISSRGGSTYYADSVKGRFTISRDNAKNTVYFQMNSLKPEDTAVYYCAKYASVGYGRYPYDYWGQGTQVTVSS | high polyreactivity |
| QVQLVESGGGLDQAGGSLRLSCAASGSIFQYYAMGWYRQAPGKEREFVAAITSDGSSTYYADSVKGRFTISRDNAKNTVYLQMNSLKPEDTAVYYCAAGWVGYRLPSMYYWGQGTQVTVSS | high polyreactivity |
| QVQLVESGGGLDQAGGSLRLSCAASGSIFTGNAMGLYRQAPGKERELVAAISSSGGSTYYADSVKGRFTISRDNAKNTVYLQMNSLKPEDTAVYYCAAYKYFLQYDYWGQGTQVTVSS | low polyreactivity |
| QVQLVESGGGLDQAGGSLRLSCAASGSIFYHNAMGWYRQAPGKERELVAAITGSGGSTYYADSVKWRFTISRDNAKNTFYLQMNSLKPEDTAVYYCAADYDYQYRYYYWGQGTQVTVSS | low polyreactivity |
| QVQLVESGGGLDQAGGSLRLSCAASGSIIWYYAMGWYRQAPGKESELVASISRRGGSTYYADSVKGRFTISRDNAKYTVYLQMNSLKPEDTAVYYCAAYSRTTGSTVQGTYDYWGQGTQVSVSS | low polyreactivity |
| QVQLVESGGGLDQAGGSLRLSCAASGSISVWYVMGWYRQAPGKERELVAAITRSGGSTFYADSLKGRFTISRDNAKNTVYLQMNSLKPEDTAVYYCASDGGVAWGYGDWGQGTQVTVSS | low polyreactivity |

| Sequence | polyreactivity (PSR sort gate) |
| --- | --- |
| QVQLVESGGGLDQAGGSLRLSCAASGSTFDVYAMGRYRQAPGKVRELVAAISRSGGSTYYADSVKGRFTISRDYAKNNVYLQMYSLKPEDTAVYYCNARLARWGSYEYNYWGQGTQVTVSS | low polyreactivity |
| QVQLVESGGGLDQAGGSLRLSCAASGSTFLYYAMGWYRQAPGKEREFVARITTRVGRTYYADSVKGRFTISRDNAKNTVSLQMNSLKPEDTAVYYCAAVRISRTPRGLYEYWGQGTQVTVSS | high polyreactivity |
| QVQLVESGGGLDQAGGSLRLSCAASGSTFPSYAMGWYRQAPGKERELVAAINSGGGTNYADSVKGRFTISRDNAKNTVYLQMNSLKPEDTAVYYCAKSRYDYTKTEGGYWGQGTQVTVSS | low polyreactivity |
| QVQLVESGGGLDQAGGSLRLSCAASGSTFRFNAMGWYRQAPGKEREFVAAIRFTGGSSYYSDSVKGRFTISRDNAKNTVYLQMNSLKPDDTAVYYCNNADEYSTVEYDYWGQGTLVTVSS | low polyreactivity |
| QVQLVESGGGLDQAGGSLRLSCAASGSTFYGYAMGWYRPAPGKERELVAGISSGDSTNYADSVKGRFTISRDNAKNTVYLQMNSLKPEDTAVYYCARDYSRHKGDYWGQGTQVTVSS | low polyreactivity |
| QVQLVESGGGLDQAGGSLRLSCAASGSTVVRYAMGWYRQAPGKEREFVATISRRGGSTYYADSVKGRFTISRDNAKNTVYLQMNSLKPEDTAVYYCAKQGEAALPYIYDHWGQGTQVTVSS | low polyreactivity |
| QVQLVESGGGLDQAGGSLRLSCAASGYIFGSYAMGWYRQAPGKERELVAAITISGGRTYYADSVKGRFTISRDNAKNTVYLQMNSLLPEDTAVYYCAKDGERSRNGRIHYDYWGQGTKVTVSS | low polyreactivity |
| QVQLVESGGGLDQAGGSLRLSCAASGYTYGYYAMGWYRQAPGKERELVATISYSGGTTYYADSVRGRFTISRDNAKNTVYLQMNSLKPEDTAVYYCNARGYKRLYGYWVQGTQVTVSS | high polyreactivity |
| QVQLVESGGGLDQAGGSLRLSCADSGFTSDGYAKGSYTQAPGKEREFVADINSDGSTNYADSVKARFTISRDNAKNTVYLQLNSLIPEDSAVYYCAKDQAAYYLIPWYPLHDYWGQGTQVTLSS | low polyreactivity |
| QVQLVESGGGLDQAGGSLRLSCASSGRIFRYNARGWYRQAPGKERELVAAITSGTGTNYADSVKGRFTISRDNAKNTVYLQMNRLTPEETAVYYCAVDYGYWRDSMGLGVFDYWGQGTQVTVSS | low polyreactivity |
| QVQLVESGGGLDQAGGSLRLSCDASGFIFVRYAMGWSRQAPGKERELVAGINSGGSTSYADSVKGRFTISRDNAKNTVYLQMNSLKPEDSAVYYCNADVYVGYEYEYWGQGTQVTVSS | low polyreactivity |
| QVQLVESGGGLDQAGGSLRLSCPASGRIFPINAMGRYRQAPGKERELVAAISYSRGSTYYADSVKGRFTISRDNAKNTVYLQMNSLKPEDTAVYYCNARYPYSYYHRYYYWGQGTQVSVSS | high polyreactivity |
| QVQLVESGGGLDQAGGSLRLSCVASGSIFRGNAMGWYRQAPGKERELVASISKGGGSTYYADSVKGRFIISRDNAKNTVYLQMNSLKPEDTAVYYCNAQFYNSGWSFKYYYWGQGTQVTVSS | low polyreactivity |
| QVQLVESGGGLDQAGGSLRLSSAASGFTFRRNAMGWYRQAPGTERELVASITQRGGSTYYADSVKGRFTISRDNAKNTVYLQMNSLKPEATAVYYCAAGPTSRRWYDYWGQGTEVTVSS | high polyreactivity |
| QVQLVESGGGLDQAGGSLRLSSAASGITFYGYDMGWYRQAPGKARELVAAITSDGITNYADSVKGRFTFSRDNAKNTVYLHMNSLKPEDTAVYYCAADLSFYRRYEWYYYWGQGTQVTVSS | low polyreactivity |
| QVQLVESGGGLDQAGGSLRLSWAASGSIFTIYAMGWYRQAPGKERELVAAISRRGGSTYYADSVKGRFTISRDNSKNTVYLQMNSLKPEDTAVYYCNADVAPGIFYGYDCWGQGTQVTVSS | low polyreactivity |
| QVQLVESGGGLDQAGGSLRLSWAASGSTFTINVMGWYRQAPGKERELVAAINGGGRTNYADSVKGRFTISRDNAKNTVYLQMNSLKPEDTAVYYCAADGLSNVRQMDFWGQGTQVTVSS | low polyreactivity |
| QVQLVESGGGLDQAGGSLRLTCAASGFTFQVYAMGWYRQAPGKERELVADITSGTSTNYADSVKGRFTSSRDNAKNTVYLQMNSLKPEDTAVYYCANVYTYKSFDYWGQGTQVTVSS | low polyreactivity |
| QVQLVESGGGLDQAGGSLRLTCAASGRIISGNAMGWYRQAPGKERELVAAISWSGGSTYYADSVKWRFTISRDNEKNTVYLHMNSLQPEDSAVYYCNAPGYRRYGSRMGYCGQGTQVTVSS | high polyreactivity |
| QVQLVESGGGLDQAGGSLRLTCAASGSIFEIYDRGWYRQAPGKEMELVASIRTSGGSTFYADSVKGRFTISRDNAKNTVYLQMNSLKPEDTAVYYCAAGDVPRRIYLVYVGYLLDYWGQGTQVTVSS | low polyreactivity |
| QVQLVESGGGLDQAGGTLRLSSAASGSTFYTNAMGWYRQAPGKERELVAAISGSGGSTYYADSVKGRFTISRDNAKNTVYLQMNSLKPEDNAVYYCAARSRYYDTRFDYWGQGTQVTVSS | low polyreactivity |
